Test results taken from patent US11278600B2, “Human alpha-galactosidase variants” (Codexis, Inc., priority 2014, dated 2022).

Key:
Assay type in all cases: biochemical
[1] = HTP-analysis of yeast culture supernatants, no challenge (MUGal hydrolysis); settings: activity of the variant/activity of Rd3BB (SEQ ID NO: 13)
Outline: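 GLA variants expressed in yeast INVSc1, secreted into SD-Ura broth over 66-84 h at 30° C; clarified supernatants tested without challenge. Supernatant mixed with McIlvaine buffer pH 4.8 and 2 mM MUGal (citrate/KCl, pH 4.6), 37° C for 30-180 min, carbonate-quenched, fluorescence Ex 355/Em 448 nm.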

[2] = HTP-analysis of supernatants pretreated with acid (MUGal hydrolysis); settings: activity of the variant/activity of Rd3BB (SEQ ID NO: 13); challenge at pH 3.7
Outline: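 Yeast INVSc1 supernatant, GLA variants; acid challenge: McIlvaine pH 3.3-4.3, 37° C., 1-3 h. Assay: MUGal in McIlvaine pH 4.8 plus citrate pH 4.3, 37° C., 30-180 min, Na2CO3 stop, Ex 355/Em 448 nm.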

[3] = HTP-analysis of supernatants pretreated with base (MUGal hydrolysis); settings: activity of the variant/activity of Rd3BB (SEQ ID NO: 13); challenge at pH 9.7
Outline: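 GLA variants secreted from yeast INVSc1; culture supernatants pre-incubated with McIlvaine buffer pH 7.0–8.2 or 200 mM bicarbonate pH 9.1–9.7 at 37° C. for 1–18 h. Residual activity: MUGal (4 mM stock) hydrolysis at pH 4.3–4.8, 37° C., 30–180 min, carbonate quench; fluorescence Ex 355/Em 448 nm.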

Row | Molecule | Relative Activity of GLA Variants After No Challenge (NC) [1] | Relative Activity of GLA Variants After Challenge at pH 3.7 [2] | Relative Activity of GLA Variants After Challenge at pH 9.7 [3]
1 | 591 (protein, Synthetic Polypeptide sequence of Variant No. 591 of mature Human GLA) LDNGLARTPTMGWLHWERFMCNLDCQEEPDSCISEKLFMEMAERMVSEGWKDAGYEYLCIDDCWMAPQRDSEGRLQADPQRFPHGIRQLANHVHSKGLKLGIYADVGNKTCAGFPGSFGYYDIDAQTFADWGVDLLKFDGCYCDSLENLADGYKHMSLALNRTGRSIVYSCEWPLYMWPFQKPNYTEIKQYCNHWRNFADIDDSWASIKSILDWTSRNQERIVDVAGPGGWNDPDMLVIGNFGLSWDQQVTQMALWAIMAAPLFMSNDLRHISPQAKALLQDKDVIAINQDPLGKQGYQLRKGDNFEVWERPLSGDAWAVAIINRQEIGGPRSYTIPVASLGKGVACNPACFITQLLPVKRQLGFYNWTSRLKSHINPTGTVLLQLENTMQMSLKDLL | + (+ = 1.5 to 5 relative activity over Rd3BB (SEQ ID NO: 13)) | + (+ = 1.5 to 5 relative activity over Rd3BB (SEQ ID NO: 13)) | ++ (++ = >5 to 10 relative activity over Rd3BB (SEQ ID NO: 13))
2 | 597 (protein, Synthetic Polypeptide sequence of Variant No. 597 of mature Human GLA) LDNGLARTPTMGWLHWERFMCNLDCQEEPDSCISEKLFMEMAERMVSEGWKDAGYEYLCIDDCWMAPQRDSEGRLQADPQRFPHGIRQLANHVHSKGLKLGIYADVGNKTCAGFPGSFGYYDIDAQTFADWGVDLLKFDGCYCDSLENLADGYKHMSLALNRTGRSIVYSCEWPLYMWPFQKPNYVEIRQYCNHWRNFADIDDSWASIKSILDWTSRNQERIVDVAGPGGWNDPDMLVIGNFGLSWDQQVTQMALWAIMAAPLFMSNDLRHISPQAKALLQDKDVIAINQDPLGKQGYQLRKGDNFEVWERPLSGDAWAVAIINRQEIGGPRSYTIPVASLGKGVACNPACFITQLLPVKRQLGFYNWTSRLKSHINPTGTVLLQLENTMQMSLKDLL | + (+ = 1.5 to 5 relative activity over Rd3BB (SEQ ID NO: 13)) | − (− = <1.5 relative activity to Rd3BB (SEQ ID NO: 13)) | + (+ = 1.5 to 5 relative activity over Rd3BB (SEQ ID NO: 13))
3 | 592 (protein, Synthetic Polypeptide sequence of Variant No. 592 of mature Human GLA) LDNGLARTPTMGWLHWERFMCNLDCQEEPDSCISEKLFMEMAERMVSEGWKDAGYEYLCIDDCWMAPQRDSEGRLQADPQRFPHGIRQLANHVHSKGLKLGIYADVGNKTCAGFPGSFGYYDIDAQTFADWGVDLLKFDGCYCDSLENLADGYKHMSLALNRTGRSIVYSCEWPLYMWPFQKPNYTEIVQYCNHWRNFADIDDSWASIKSILDWTSRNQERIVDVAGPGGWNDPDMLVIGNFGLSWDQQVTQMALWAIMAAPLFMSNDLRHISPQAKALLQDKDVIAINQDPLGKQGYQLRKGDNFEVWERPLSGDAWAVAIINRQEIGGPRSYTIPVASLGKGVACNPACFITQLLPVKRQLGFYNWTSRLKSHINPTGTVLLQLENTMQMSLKDLL | + (+ = 1.5 to 5 relative activity over Rd3BB (SEQ ID NO: 13)) | + (+ = 1.5 to 5 relative activity over Rd3BB (SEQ ID NO: 13)) | ++ (++ = >5 to 10 relative activity over Rd3BB (SEQ ID NO: 13))
4 | 596 (protein, Synthetic Polypeptide sequence of Variant No. 596 of mature Human GLA) LDNGLARTPTMGWLHWERFMCNLDCQEEPDSCISEKLFMEMAERMVSEGWKDAGYEYLCIDDCWMAPQRDSEGRLQADPQRFPHGIRQLANHVHSKGLKLGIYADVGNKTCAGFPGSFGYYDIDAQTFADWGVDLLKFDGCYCDSLENLADGYKHMSLALNRTGRSIVYSCEWPLYMWPFQKPNYGEIRQYCNHWRNFADIDDSWASIKSILDWTSRNQERIVDVAGPGGWNDPDMLVIGNFGLSWDQQVTQMALWAIMAAPLFMSNDLRHISPQAKALLQDKDVIAINQDPLGKQGYQLRKGDNFEVWERPLSGDAWAVAIINRQEIGGPRSYTIPVASLGKGVACNPACFITQLLPVKRQLGFYNWTSRLKSHINPTGTVLLQLENTMQMSLKDLL | + (+ = 1.5 to 5 relative activity over Rd3BB (SEQ ID NO: 13)) | ++ (++ = >5 to 10 relative activity over Rd3BB (SEQ ID NO: 13)) | ++ (++ = >5 to 10 relative activity over Rd3BB (SEQ ID NO: 13))
5 | 593 (protein, Synthetic Polypeptide sequence of Variant No. 593 of mature Human GLA) LDNGLARTPTMGWLHWERFMCNLDCQEEPDSCISEKLFMEMAERMVSEGWKDAGYEYLCIDDCWMAPQRDSEGRLQADPQRFPHGIRQLANHVHAKGLKLGIYADVGNKTCAGFPGSFGYYDIDAQTFADWGVDLLKFDGCYCDSLENLADGYKHMSLALNRTGRSIVYSCEWPLYMWPFQKPNYTEIRQYCNHWRNFADIDDSWASIKSILDWTSRNQERIVDVAGPGGWNDPDMLVIGNFGLSWDQQVTQMALWAIMAAPLFMSNDLRHISPQAKALLQDKDVIAINQDPLGKQGYQLRKGDNFEVWERPLSGDAWAVAIINRQEIGGPRSYTIPVASLGKGVACNPACFITQLLPVKRQLGFYNWTSRLKSHINPTGTVLLQLENTMQMSLKDLL | + (+ = 1.5 to 5 relative activity over Rd3BB (SEQ ID NO: 13)) | + (+ = 1.5 to 5 relative activity over Rd3BB (SEQ ID NO: 13)) | ++ (++ = >5 to 10 relative activity over Rd3BB (SEQ ID NO: 13))
6 | 594 (protein, Synthetic Polypeptide sequence of Variant No. 594 of mature Human GLA) LDNGLARTPTMGWLHWERFMCNLDCQEEPDSCISEKLFMEMAERMVSEGWKDAGYEYLCIDDCWMAPQRDSEGRLQADPQRFPHGIRQLANHVHEKGLKLGIYADVGNKTCAGFPGSFGYYDIDAQTFADWGVDLLKFDGCYCDSLENLADGYKHMSLALNRTGRSIVYSCEWPLYMWPFQKPNYTEIRQYCNHWRNFADIDDSWASIKSILDWTSRNQERIVDVAGPGGWNDPDMLVIGNFGLSWDQQVTQMALWAIMAAPLFMSNDLRHISPQAKALLQDKDVIAINQDPLGKQGYQLRKGDNFEVWERPLSGDAWAVAIINRQEIGGPRSYTIPVASLGKGVACNPACFITQLLPVKRQLGFYNWTSRLKSHINPTGTVLLQLENTMQMSLKDLL | + (+ = 1.5 to 5 relative activity over Rd3BB (SEQ ID NO: 13)) | + (+ = 1.5 to 5 relative activity over Rd3BB (SEQ ID NO: 13)) | ++ (++ = >5 to 10 relative activity over Rd3BB (SEQ ID NO: 13))
7 | 595 (protein, Synthetic Polypeptide sequence of Variant No. 595 of mature Human GLA) LDNGLARTPTMGWLHWERFMCNLDCQEEPDSCISEKLFMEMAERMVSEGWKDAGYEYLCIDDCWMAPQRDSEGRLQADPQRFPHGIRQLANHVHSKGLKLGIYADVGNKTCAGFPGSFGYYDIDAQTFADWGVDLLKFDGCYCDSLENLADGYKHMSLALNRTGRSIVYSCEWPLYMWPFQKPNYAEIRQYCNHWRNFADIDDSWASIKSILDWTSRNQERIVDVAGPGGWNDPDMLVIGNFGLSWDQQVTQMALWAIMAAPLFMSNDLRHISPQAKALLQDKDVIAINQDPLGKQGYQLRKGDNFEVWERPLSGDAWAVAIINRQEIGGPRSYTIPVASLGKGVACNPACFITQLLPVKRQLGFYNWTSRLKSHINPTGTVLLQLENTMQMSLKDLL | + (+ = 1.5 to 5 relative activity over Rd3BB (SEQ ID NO: 13)) | + (+ = 1.5 to 5 relative activity over Rd3BB (SEQ ID NO: 13)) | + (+ = 1.5 to 5 relative activity over Rd3BB (SEQ ID NO: 13))
8 | 521 (protein, Synthetic Polypeptide sequence of Variant No. 521 of mature Human GLA) LDNGLARTPTMGWLHWERFMCNLDCQEEPDSCISEKLFMEMAERMVSEGWKNAGYEYLCIDDCWMAPQRDSEGRLQADPQRFPHGIRQLANHVHSKGLKLGIYADVGNKTCAGFPGSFGYYDIDAQTFADWGVDLLKFDGCYCDSLENLADGYKHMSLALNRTGRSIVYSCEWPLYMWPFQKPNYTEIRQYCNHWRNFADIDDSWASIKSILDWTSRNQERIVDVAGPGGWNDPDMLVIGNFGLSWDQQVTQMALWAIMAAPLFMSNDLRHISPQAKALLQDKDVIAINQDPLGKQGYQLRKGDNFEVWERPLSGDAWAVAIINRQEIGGPRSYTIPVASLGKGVACNPACFITQLLPVKRQLGFYNWTSRLKSHINPTGTVLLQLENTMQMSLKDLL | + (+ = 1.5 to 5 relative activity over Rd3BB (SEQ ID NO: 13)) | + (+ = 1.5 to 5 relative activity over Rd3BB (SEQ ID NO: 13)) | ++ (++ = >5 to 10 relative activity over Rd3BB (SEQ ID NO: 13))
